B1: 180C 8A10: anti-naltrexone monoclonal antibody generated using naltrexone-3-Val-mcKLH; heavy chain SEQ ID NO:101, light chain SEQ ID NO:105 (antibody)
heavy: MGWSYIFLFLVATVTDVHSQVQLQQPGAELVKPGASVKLSCKASGYTFTNYWINWVKQRPGQGLEWLGEINPSNSNTKYNEKFKSRATLTADKSSSTAYMQLHSLTSEDSAVYYCNYYDGGHDSWGQTTLTVSS
light: MEFHTQVFVFVFLWLSGVDGDIVMTQSQKFMSTTLGDRVSIICKASQNVGTAVAWYQQKPGQSPKLLIYSTSNRYTGVPDRFTGSGSGTDFSLTISSVQSEDLADYFCHQYSSYLYTFGGGTRLEIK
modifications: Amino acid sequence of heavy chain of monoclonal antibody 180C 8A10; Amino acid sequence of light chain of monoclonal antibody 180C 8A10
B2: 180C 7G8: anti-naltrexone monoclonal antibody generated using naltrexone-3-Val-mcKLH; heavy chain SEQ ID NO:81, light chain SEQ ID NO:85 (antibody, V domains shown)
VH: MYLGLNCVIIVFLLKGVQSEVKLEESGGGLVQPGGSVKLSCAVFGFTFSDPWMDWVRQSPEKGLEWVAEIRNKAYNHATYYAESVKGRFTISRDDSNSRVSLQMNNLRAEDTGVYYCTAGDSSHSYWQGTLVTVSA
VL: MEFQTQVFVFVLLWLSGVDGDIVMTQSQKFMSTSVGDRVSIICKASQNVRTAVAWYQQKPGQSPKTLIYLASNRHTGVPDRFTGSGSGTDFTLTISNVQAEDLADYFCLQHWNYPLTFGGGTKLEIK
modifications: Amino acid sequence of heavy chain of monoclonal antibody 180C 7G8; Amino acid sequence of light chain of monoclonal antibody 180C 7G8
B3: 180B 13F7: anti-naltrexone monoclonal antibody generated using naltrexone-3-Val-mcKLH; heavy chain SEQ ID NO:41, light chain SEQ ID NO:45 (antibody)
heavy: MRVLILVYLLTALPGILSDIQLQESGPGLVKPSQTVSLTCTVTGYSITYVNHWWNWIRQVSGNKLEWIGYISSSGSIDSNPSLKSRIAITRDTSKNQLFLQLKSVTTEDVGTYYCVSEDSSGYHYWGGTTLTVSS
light: MKLPVRLLVLMFWIPASSSDVVMTQTPLSLPVSLGDQASISCRSSQSLVFSNGKTYFHWYLQKPGQSPKLLIYRVSNRFSGVPDRFSGSGSGTDFTLKISRVEAEDLGVYFCSQSTHVPWTFGGGTKLEIK
modifications: Amino Acid sequence of heavy chain of monoclonal antibody 180B 13F7; Amino Acid sequence of light chain of monoclonal antibody 180B 13F7
B4: 180C 9G8: anti-naltrexone monoclonal antibody generated using naltrexone-3-Val-mcKLH; heavy chain SEQ ID NO:141, light chain SEQ ID NO:145 (antibody, V domains shown)
VH: MYLGLNCVIIVFLLKGVQSEVKLEESGGGLVQPGGSMKLSCAASGFTFSDAWMDWVRQSPEKGLEWVAEIRNKANNHATYYAESVKGRFTISRDDSNSRMFLQMDSLRAEDTGIYYCIGGIPRYFDVGAGTTVTVSS
VL: MESQTQVFVYMLLWLSGVDGDIVMTQSQKFMSTSVGDRVSITCKASQNVRTYVAWYQQKPGQSPKALLYSASYRYSGVPDRFIGSGSGTQFTLTISDVQSEDLAEYFCHQYNSYPLTFGGGTKLEIQ
modifications: Amino acid sequence of heavy chain of monoclonal antibody 180C 9G8; Amino acid sequence of light chain of monoclonal antibody 180C 9G8
B5: 179B 9G1.1: anti-naloxone monoclonal antibody generated using naloxone-3-Val-mcKLH; heavy chain SEQ ID NO:161, light chain SEQ ID NO:165 (antibody)
heavy: MEWPCIFLFLLSVTEGVHSQVQLQQSGPELVKPGASVMISCKVFGDIFSSSWMNWVKQRPGKGLEWIGWICPGNGATKYNGKFKGKATLTADKSSGTGYMQLSSLTSEDSAVYFCELGRRDGYLDVWAGTTVTVSS
light: MESQTQVFVYMLLWLSGVDGDIVMTQSQKFIFTSEGDRVSVTCKASQNVGTNIAWYQQKPGQSPKALIYSASNRYSGVPDRFTGSGSGTDFTLTFSNVQSEDLAEYFCLQYNNYPWTFGGGTKLEIK
modifications: Amino acid sequence of heavy chain of monoclonal antibody 179B 9G1.1; Amino acid sequence of light chain of monoclonal antibody 179B 9G1.1
B6: 180C 1F8: anti-naltrexone monoclonal antibody generated using naltrexone-3-Val-mcKLH; heavy chain SEQ ID NO:61, light chain SEQ ID NO:65 (antibody)
heavy: MEWSWIFLFFLSVTTGVHSQVQLQQSDAELVKPGTSVKISCKASGFTFTDHAIHWVKQRPEQGLEWIGYISPGNGDIKYNEKFKGKATLTADKSSSTAYMQLNSLTSEDSAVYFCDYYNGRVDYWGQTTLTVSS
light: MEFHTQVFVFVFLWLSGVDGDIVMTQSQKFMTTSVGDRVSITCKASQNVGSAVAWYQQKPGQSPKLLIYSASNRFTGVPDRFTGSGSRTDFTLTISNMQSDDLADYFCHQYRSYPYTFGGGTKLEIK
modifications: Amino Acid sequence of heavy chain of monoclonal antibody 180C 1F8; Amino Acid sequence of light chain of monoclonal antibody 180C 1F8
B7: 180C 9D5: anti-naltrexone monoclonal antibody generated using naltrexone-3-Val-mcKLH; heavy chain SEQ ID NO:121, light chain SEQ ID NO:125 (antibody)
heavy: MGWNYIFLFLIATVTDVHSQVRLQQPGTDLVKPGASVKLSCRASGFTFTNYWMNWVKQRPGQGLEWIGEINTNGGTKYNENFKNKATLTVDQSSSTAYIQLSGLTSEDSAVYFCNYFDGNYDYWGQGTLTVSS
light: MEFHTQVFVFVFLWLSGVDGDIVMTQSQKFMSTPVGDRVSLTCRASQNVGTAVAWYQQKPGQPPKLLIYSTSNRFTGVPSRFTGSGSGTDFTLTITNMQSEDLADYFCHQYSSYPYTFGGGTKLEIK
modifications: Amino acid sequence for heavy chain of monoclonal antibody 180C 9D5; Amino acid sequence for light chain of monoclonal antibody 180C 9D5

Tests used:
[1] = inhibition ELISA, anti-naltrexone monoclonal antibodies against key opioids (FIG. 8); format: binding; settings: free drug 20 μg/mL, plates coated with ovalbumin conjugate
Text: (§1) Mice with good anti-drug antibody titers and binding to free drug in the ELISA inhibition assays were selected to proceed with generation of monoclonal antibodies, in a similar manner to that described in U.S. Pat. No. 9,815,907 (issued to Sharma et al. on Nov. 14, 2017). In particular, mice with highest titers and best specificity were boosted three days prior to fusion. On the day of fusion, spleen cells were harvested from these mice and were fused with myeloma cell line P3X63Ag8.653 using PEG-assisted fusion protocols. After about ten days, hybridoma supernatants were screened for anti-naloxone and anti-naltrexone antibodies using a plate ELISA (direct binding and inhibition ELISA for specificity). Positive clones were further expanded and sub-cloned, and supernatants were purified using a Protein A SEPHAROSE® (GE Healthcare, Chicago, IL) column. Purified antibody samples were tested using ELISA for binding to the immunogen (i.e., a conjugate of drug-carrier protein) and to free opioids.
(§2) Antibody solution (Immune mouse bleeds or hybridoma clones supernatant or purified antibody) was screened using an inhibition ELISA procedure according to the following protocol. […] Plate coating was performed for 1 hour or more at room temperature or overnight at about 2° C. to 8° C. The plates were then flicked dry and blocked with 200 μL per well of blocking buffer solution (0.5% Casein solution in PBS containing 0.05% TWEEN® 20 surfactant (Croda International PLC, Snaith, United Kingdom). Plate blocking was performed by incubation for 30 minutes or more at room temperature with plate shaking. The plates were washed using a plate washer (BioTek®, Winooski, VT) with plate stacker with the washing buffer being MILLIQ® water (Millipore Corporation, Billerica, MA) containing 0.05% TWEEN® 20. The monoclonal antibody to be screened was then added to each well along with free drug as follows: 25 μL per well of appropriately diluted culture supernatant (or antibody solution) and added 25 μL of 20 μg/mL of free drug. Incubation was performed for about 1 hour at room temperature with plate shaking. The plate was washed. An enzyme conjugate (goat anti-mouse IgG coupled to HRP diluted in blocking buffer diluted to 1:3000) was added at 50 μL per well. Incubation was performed for about 1 hour at room temperature with shaking. The plate was then washed, and a chromogenic solution (TMB from Moss Substrates, Pasadena MD) was added at a volume of 100 μL per well. If a desired antibody was present in the hybridoma supernatant, then a decrease in optical density was observed compared to the well containing no free drug. The plates were read at 650 nm wavelength using an ELISA plate reader (Molecular Devices, San Jose, CA). Note: appropriate dilution of antibody solution was determined by performing a titration ELISA. The antibody dilution was chosen where around 1.0 optical density was observed.

[2] = inhibition ELISA, anti-naloxone monoclonal antibodies against key opioids (FIG. 7); format: binding; settings: free drug 20 μg/mL, plates coated with ovalbumin conjugate
Text: as §1, §2

Molecule | specificity for naltrexone over the other key opioids tested in the inhibition ELISA assay [1] | specificity for naloxone over the other key opioids tested in the inhibition ELISA assay [2]
B1 | good specificity for naltrexone | 
B2 | good specificity for naltrexone | 
B3 | good specificity for naltrexone | 
B4 | good specificity for naltrexone | 
B5 |  | good specificity for naloxone
B6 | good specificity for naltrexone | 
B7 | good specificity for naltrexone | 
